Results taken from the RNAGym collection of RNA variant scans (doi:10.1021/acssynbio.7b00057).

B1: Pistol ribozyme (parent)
chain: GGGUCGUUGUUCCAUAAUCGCGUGGAUAUGGCACGCAAGUUUCUACCGGGCACCGUAAAUGUCCGACUGGAGCCGUUCGGGCGGCUAUAAACAGACCUCAGGCCCGAAGCGUGGCGGCACCUGCCGCCGGUGGUAAAAAAGAUCGGAAGAGCACACGUCU

Variants of: B1
Assay: aptazyme ON/OFF ratio, guanine; higher = stronger switching; co-transcriptional cleavage with and without guanine

| Variant | aptazyme ON/OFF ratio |
| --- | --- |
| U8C U11A C13G | 1.07 |
| U8C U11A C13U | 1.11 |
| U8C U11A C13A | 1.13 |
| U8G G9A C12G C13U | 1.33 |
| U8G G9A C12G C13A | 1.37 |
| U8G G9A C12G C13G | 1.29 |
| U8G C13G | 1.2 |
| U8G C13A | 1.3 |
| U8G C13U | 1.27 |
| U8G G9A U10A C12G C13G | 1.3 |
| U8G G9A U10A C12G C13A | 1.22 |
| U8G G9A U10A C12G C13U | 1.35 |
| U8G G9A U10A U11G C13G | 1.07 |
| U8G G9A U10A U11G C13U | 1.06 |
| U8G G9A U10A U11G C13A | 1.23 |
| U8C U11A C12G | 1.25 |
| U8C U11A C12U | 1.19 |
| U8C U11A C12A | 1.34 |
| U8G G9A U10A U11C | 1.06 |
| U8G G9A U10A U11G | 1.55 |
| U8G G9A U10A U11A | 1.6 |
| U8G G9A U10A U11A C12U C13U | 1.21 |
| U8G G9A U10A U11A C12U C13G | 1.09 |
| U8G G9A U10A U11A C12U C13A | 1.36 |

| Variant | aptazyme ON/OFF ratio |
| --- | --- |
| U8G G9A U10A U11G C12U C13U | 1.56 |
| U8G G9A U10A U11G C12U C13G | 1.25 |
| U8G G9A U10A U11G C12U C13A | 1.31 |
| U8C U11G C12A | 1.15 |
| U8C U11G C12G | 1.23 |
| U8C U11G C12U | 1.26 |
| U8G G9A U10A C13U | 1.22 |
| U8G G9A U10A C13A | 1.25 |
| U8G G9A U10A C13G | 1.08 |
| U8G G9A U10A U11G C12A C13A | 1.17 |
| U8G G9A U10A U11G C12A C13U | 1.27 |
| U8G G9A U10A U11G C12A C13G | 1.09 |
| U8C U10G U11G C12U C13U | 1.23 |
| U8C U10G U11G C12U C13A | 1.11 |
| U8C U10G U11G C12U C13G | 1.12 |
| U8G G9A U10A U11C C12U C13G | 1.23 |
| U8G G9A U10A U11C C12U C13U | 1.07 |
| U8G G9A U10A U11C C12U C13A | 1.18 |
| U8C U11A C12G C13U | 1.14 |
| U8C U11A C12G C13G | 1.16 |
| U8C U11A C12G C13A | 1.1 |
| U8C U11G C12A C13G | 1.16 |
| U8C U11G C12A C13A | 1.16 |
| U8C U11G C12A C13U | 1.16 |

| Variant | aptazyme ON/OFF ratio |
| --- | --- |
| U8C U11A | 1.15 |
| U8C U11G | 1.26 |
| U8C U11C | 1.18 |
| U8C U11A C12A C13A | 1.32 |
| U8C U11A C12A C13U | 1.28 |
| U8C U11A C12A C13G | 1.11 |
| U8C U11C C12A C13U | 1.73 |
| U8C U11C C12A C13A | 1.24 |
| U8C U11C C12A C13G | 1.4 |
| U8G G9A U10A C12A C13U | 1.26 |
| U8G G9A U10A C12A C13G | 1.18 |
| U8G G9A U10A C12A C13A | 1.33 |
| U8G G9A U10A U11A C12U | 1.35 |
| U8G G9A U10A U11A C12A | 1.21 |
| U8G G9A U10A U11A C12G | 1.28 |
| U8G G9A U10C C12U C13A | 1.14 |
| U8G G9A U10A | 1.24 |
| U8G G9A U10C | 2.29 |
| U8G G9A U10A U11A C12G C13U | 1.27 |
| U8G G9A U10A U11A C12G C13A | 1.22 |
| U8G G9A U10A U11A C12G C13G | 1.39 |
| U8C U11G C12U C13G | 1.07 |
| U8C U11G C12U C13U | 1.17 |
| U8C U11G C12U C13A | 1.08 |

| Variant | aptazyme ON/OFF ratio |
| --- | --- |
| U8G G9A U10A C12A | 1.32 |
| U8G G9A U10A C12G | 1.18 |
| U8G G9A U10A C12U | 1.27 |
| U8C U10G U11G C12G C13A | 1.16 |
| U8C U10G U11G C12G C13U | 1.26 |
| U8C U10G U11G C12G C13G | 1.13 |
| U8G G9A C12U C13U | 1.25 |
| U8G G9A C12U C13A | 1.25 |
| U8G G9A C12U C13G | 1.28 |
| U8G C12A | 1.69 |
| U8G C12G | 1.52 |
| U8G C12U | 1.64 |
| U8G G9A C13U | 1.28 |
| U8G G9A C13G | 1.07 |
| U8G G9A C13A | 1.24 |
| U8G G9A U10C C12A C13G | 1.09 |
| U8G G9A U10C C12A C13U | 1.17 |
| U8G G9A U10C C12A C13A | 1.2 |
| U8G G9A U10A U11C C13G | 1.04 |
| U8G G9A U10A U11C C13U | 1.01 |
| U8G G9A U10A U11C C13A | 1.08 |
| U8G G9A | 1.64 |
| U8C U11A C12U C13G | 1.18 |
| U8C U11A C12U C13U | 1.13 |

| Variant | aptazyme ON/OFF ratio |
| --- | --- |
| U8C U11A C12U C13A | 1.21 |
| U8G C12A C13A | 1.25 |
| U8G C12A C13U | 1.12 |
| U8G C12A C13G | 1.13 |
| U8C U11G C13G | 1.06 |
| U8C U11G C13U | 1.17 |
| U8C U11G C13A | 1.05 |
| U8C U10G U11G C13G | 1.2 |
| U8C U10G U11G C13U | 1.22 |
| U8C U10G U11G C13A | 1.25 |
| U8G G9A U10A U11C C12G C13G | 1.21 |
| U8G G9A U10A U11C C12G C13U | 1.36 |
| U8G G9A U10A U11C C12G C13A | 1.24 |
| U8C U11C C13A | 1.21 |
| U8C U11C C13U | 1.19 |
| U8C U11C C13G | 1.11 |
| U8G G9A U10A U11C C12A C13A | 1.21 |
| U8G G9A U10A U11C C12A C13U | 1.32 |
| U8G G9A U10A U11C C12A C13G | 1.12 |
| U8G G9A U10A C12U C13G | 1.31 |
| U8G G9A U10A C12U C13U | 1.29 |
| U8G G9A U10A C12U C13A | 1.15 |
| U8G | 3.01 |
| U8G G9A U10A U11G C12U | 1.3 |

| Variant | aptazyme ON/OFF ratio |
| --- | --- |
| U8G G9A U10A U11G C12A | 1.08 |
| U8G G9A U10A U11G C12G | 1.48 |
| U8C U10G U11G C12U | 1.32 |
| U8C U10G U11G C12G | 1.25 |
| U8G C12U C13U | 1.18 |
| U8G C12U C13G | 1.4 |
| U8G C12U C13A | 1.23 |
| U8G G9A U10C C12G | 1.2 |
| U8G G9A U10C C12A | 1.25 |
| U8G G9A U10C C12U | 1.14 |
| U8G G9A U10A U11A C12A C13G | 1.18 |
| U8G G9A U10A U11A C12A C13U | 1.26 |
| U8G G9A U10A U11A C12A C13A | 1.21 |
| U8G C12G C13G | 1.15 |
| U8G C12G C13U | 1.55 |
| U8G C12G C13A | 1.2 |
| U8G G9A U10A U11G C12G C13G | 1.05 |
| U8G G9A U10A U11G C12G C13U | 1.28 |
| U8G G9A U10A U11G C12G C13A | 1.34 |
| U8C U11C C12G C13G | 1.36 |
| U8C U11C C12G C13A | 1.37 |
| U8C U11C C12G C13U | 1.36 |
| U8C U11C C12G | 1.34 |
| U8C U11C C12A | 1.14 |

| Variant | aptazyme ON/OFF ratio |
| --- | --- |
| U8C U11C C12U | 1.55 |
| U8G G9A U10A U11A C13A | 1.12 |
| U8G G9A U10A U11A C13G | 1.01 |
| U8G G9A U10A U11A C13U | 1.17 |
| U8G G9A C12A C13U | 1.39 |
| U8G G9A C12A C13G | 1.27 |
| U8G G9A C12A C13A | 1.25 |
| U8G G9A U10C C12G C13G | 1.2 |
| U8G G9A U10C C12G C13U | 1.33 |
| U8G G9A U10C C12G C13A | 1.21 |
| U8C U11C C12U C13G | 1.5 |
| U8C U11C C12U C13A | 1.19 |
| U8C U11C C12U C13U | 1.33 |
| U8C U11G C12G C13A | 1.13 |
| U8C U11G C12G C13U | 1.11 |
| U8C U11G C12G C13G | 1.19 |
| U8G G9A U10A U11C C12U | 1.04 |
| U8G G9A U10A U11C C12A | 1.2 |
| U8G G9A U10A U11C C12G | 1.23 |
| U8C U10G U11G C12A C13U | 1.22 |
| U8G G9A C12G | 1.16 |
| U8G G9A C12A | 1.61 |
| U8G G9A C12U | 1.39 |
